Tests used:
CA125 [1] = molecular target: T1, CA125 (Homo sapiens, UniProt Q8WXI7); experiment: Inhibition of binding of patients' anti-CA125 antibodies to CA125 (solid phase); classification Ab3/Ab1c; details: inhibitor at 10500 U/ml
Procedure: Anti-CA 125 positive samples were tested for inhibition of their binding to CA 125 (solid phase) by CA 125, MAb-B43.13 scFv, MAb-B27.1 F(ab′), or MAb M11 F(ab′). Single chain MAb-B43.13, F(ab′) MAb-B27.1, and F(ab′) M11 were used in the inhibition studies to avoid non-specific inhibition of the Fc portion of the antibody and cross-reactivity due to HAMA. To be considered to be significant, inhibition had to be at least 15%.
Thus, if the patients serum contained anti-CA125 antibodies that were inhibitable by MAb-B43.13 only, it was classified as containing Ab3; those inhibitable by MAb-B27.1 were classified as Ab1c. In other words, injecting a binding agent such as an antibody against a single epitope on a multi-epitopic antigen leads to generation of a humoral and cellular response against a different epitope on the antigen.
Method: 86 ovarian cancer patients with active disease were tested for the presence of antibodies against CA125. None of the patients had antibodies against CA125 before injection of MAb-B43.13. The patients were injected with 2 mg of MAb-B43.13 at varying time intervals (e.g., see Table 5 for some of the patients). Sera from these patients were analyzed for the presence of human anti-CA125 antibodies by their ability to bind to the CA125 [R. Madiyalakan et al, Hybridoma, 14:199-203 1995)]. […]

[2] = system: CA125 specific mouse T-cells; experiment: Proliferation of CA125 specific T-cells with stimulated peritoneal macrophages ([3H]-thymidine uptake); type: cell-based; details: macrophages stimulated with agent, presented to CA125 specific mouse T-cells; 1 μug/ml of the antibody and 100 Units/ml CA125; mean of three experiments
Excerpt: Enhanced antigen-presentation of antigen-antibody complexes was attributed to facilitated antigen uptake via the Fcγ-receptor (macrophages, dendritic cells) or membrane-bound Ig (B cells) on professional antigen-presenting cells (APC). […] Accordingly, various professional APC can be involved in the preferential presentation of the CA125-MAb-B43.13 complex. We tested B cells with two different specificities as well as macrophages as APC: CA125-specific B cells (from mice immunized with CA125) and anti-MAb-B43.13-specific B cells (from mice immunized with MAb-B43.13). Normal B cells served as control. […] Enhanced presentation of immune complexes by macrophages and dendritic cells is mediated by preferential uptake via the FcγR. FIG. 4 confirms that CA125 is presented more efficiently by macrophages, if complexed with an antigen specific antibody.
Better cellular immune response was observed when the UV exposed antibody was presented in association with the antigen to T-cells. Thus, macrophages isolated from mouse peritoneal cavities were stimulated with native B43.13 or UV exposed B43.13 in association with CA125 and presented to CA125 specific mouse T-cells isolated from mice injected with CA125. Control experiments included stimulation of the macrophages without the antigen. […]

CA125 [3] = molecular target: T1, CA125; experiment: in vitro studies, method not stated
FcγR = details: complexed with anti-tetanus toxoid IgG; measured by TH cell activation; cited from earlier work

CA125: soluble multi-epitopic tumor associated antigen of epithelial ovarian cancers
Inhibition, No. of Positives/Total (CA125 [1]; anti-CA125 positive samples of patients injected with MAb-B43.13, positive = inhibition at least 15%): 26/28
Inhibition, positives (%) (CA125 [1]; anti-CA125 positive samples): (92.8) %
STIMULATION INDEX [2]: 2.76

MAb-B43.13 (antibody)
binding capacity (units of CA 125 per 1 ng of MAb-B43.13) (CA125 [3]): 10

tetanus toxoid
increase in processing and presentation of the antigen (FcγR): 10-1000 -fold

Source: patent US7318921B2, “Therapeutic compositions that alter the immune response” (AltaRex Medical Corp., priority 1996, dated 2008)
